Target: T1, Rpn11 (3XFLAG-tagged, in the 26S proteasome) (S. cerevisiae, UniProt P43588 1-306)
T1 construct: Rpn11, Zn2+-dependent deubiquitinase of the lid, S. cerevisiae; strain YYS40 RPN11::RPN11-3XFLAG; the catalytic Zn2+ is not visible in the structure; also called Rpn11 deubiquitinase; source: purified from S. cerevisiae strain YYS40 as part of the 26S proteasome (anti-FLAG, SEC)
Assay: cryo-EM structure; 26S proteasome (20 μM; 20 mM HEPES pH 7.6, 25 mM NaCl, 25 mM KCl, 10 mM MgCl2, 1 mM TCEP, 5 mM ATP, 0.05% NP-40, ATP regeneration system, 6 mM ortho-phenanthroline) mixed with an equal volume of 50 μM ubiquitinated model substrate and vitrified at once; single-particle analysis gave four substrate-engaged states (1D*, 5D, 5T, 4D)
Settings: both partners purified

- binding result: binds
B1: ubiquitin (S. cerevisiae), the most proximal, substrate-attached moiety of the poly-ubiquitin chain (natural protein)
chain: not shown
modifications: C-terminus in an isopeptide bond with the substrate lysine; part of a K63-linked ubiquitin chain
notes: ubiquitin, S. cerevisiae; cut product of the ubiquitin precursors; Modeled at the Rpn11 active site in the 4D state with PDB 5U4P as template; also called ubiquitin moiety

Reference: article doi:10.1101/393223, “Structures of the substrate-engaged 26S proteasome reveal the mechanisms for ATP hydrolysis-driven translocation” (bioRxiv, 2018)
